Among the targets are HLA-DR15 (human); HLA-DRB3 (human); HLA-DRB5 (human); HLA-DR1 (human); HLA-DR4 (human); HLA-DR7 (human); HLA-DRB4 (human).
Common to all, as to experiment: competitive ELISA, mean of three experiments
A general note: ELISA stands for enzyme-linked immunosorbent assay.

B1: UCP4 (TERT1041-1055) (peptide)
peptide: SLCYSILKAKNAGMS
notes: Synthetic 15-mer (>80% purity, Activotec) derived from human TERT; also called UCP1041; p1041
As for B1, the “relative affinity (RA, IC50 of UCP / IC50 of reference peptide)” value worked out at 3 ratio with HLA-DR15; 154 ratio with HLA-DRB3; 0.5 ratio with HLA-DRB5; 0.3 ratio with HLA-DR1; 34 ratio in the test with HLA-DR4; 8 ratio with HLA-DR7.

B2: UCP2 (TERT578-592) (peptide)
peptide: KSVWSKLQSIGIRQH
notes: Synthetic 15-mer (>80% purity, Activotec) derived from human TERT; also called UCP578; p578
As to B2, the “relative affinity (RA, IC50 of UCP / IC50 of reference peptide)” value stood at 8 ratio with HLA-DR15; 154 ratio with HLA-DRB3; 229 ratio with HLA-DRB4; 1 ratio with HLA-DRB5; 0.2 ratio with HLA-DR1; 112 ratio in the test with HLA-DR4. Moreover, the “relative affinity (RA, IC50 of UCP / IC50 of reference peptide)” value with HLA-DR7 came out at 1 ratio.

B3: UCP1 (TERT44-58) (peptide)
peptide: PAAFRALVAQCLVCV
notes: Synthetic 15-mer (>80% purity, Activotec) derived from human TERT; also called UCP44; p44
As for B3, the “relative affinity (RA, IC50 of UCP / IC50 of reference peptide)” value in the test with HLA-DR15 was determined as 4 ratio; in the test with HLA-DRB3 it was 30 ratio; in the test with HLA-DRB4, 4 ratio; with HLA-DRB5 it was 1 ratio; with HLA-DR1, 3 ratio; in the test with HLA-DR4, 50 ratio. The “relative affinity (RA, IC50 of UCP / IC50 of reference peptide)” value with HLA-DR7 came out at 3 ratio.

(Values after US20150283219A1 (INVECTYS, published 2015).)
